Measurements from article PMC10540216, “Activity Guided Azide-methyllysine Photo-trapping for Substrate Profiling of Lysine Demethylases” (Journal of the American Chemical Society, 2023).

B1: DPOG1_HUMAN (protein, UniProt P54098 1-1239, looked up)
DNA polymerase subunit gamma-1: MSRLLWRKVAGATVGPGPVPAPGRWVSSSVPASDPSDGQRRRQQQQQQQQQQQQQPQQPQVLSSEGGQLRHNPLDIQMLSRGLHEQIFGQGGEMPGEAAVRRSVEHLQKHGLWGQPAVPLPDVELRLPPLYGDNLDQHFRLLAQKQSLPYLEAANLLLQAQLPPKPPAWAWAEGWTRYGPEGEAVPVAIPEERALVFDVEVCLAEGTCPTLAVAISPSAWYSWCSQRLVEERYSWTSQLSPADLIPLEVPTGASSPTQRDWQEQLVVGHNVSFDRAHIREQYLIQGSRMRFLDTMSMHMAISGLSSFQRSLWIAAKQGKHKVQPPTKQGQKSQRKARRGPAISSWDWLDISSVNSLAEVHRLYVGGPPLEKEPRELFVKGTMKDIRENFQDLMQYCAQDVWATHEVFQQQLPLFLERCPHPVTLAGMLEMGVSYLPVNQNWERYLAEAQGTYEELQREMKKSLMDLANDACQLLSGERYKEDPWLWDLEWDLQEFKQKKAKKVKKEPATASKLPIEGAGAPGDPMDQEDLGPCSEEEEFQQDVMARACLQKLKGTTELLPKRPQHLPGHPGWYRKLCPRLDDPAWTPGPSLLSLQMRVTPKLMALTWDGFPLHYSERHGWGYLVPGRRDNLAKLPTGTTLESAGVVCPYRAIESLYRKHCLEQGKQQLMPQEAGLAEEFLLTDNSAIWQTVEELDYLEVEAEAKMENLRAAVPGQPLALTARGGPKDTQPSYHHGNGPYNDVDIPGCWFFKLPHKDGNSCNVGSPFAKDFLPKMEDGTLQAGPGGASGPRALEINKMISFWRNAHKRISSQMVVWLPRSALPRAVIRHPDYDEEGLYGAILPQVVTAGTITRRAVEPTWLTASNARPDRVGSELKAMVQAPPGYTLVGADVDSQELWIAAVLGDAHFAGMHGCTAFGWMTLQGRKSRGTDLHSKTATTVGISREHAKIFNYGRIYGAGQPFAERLLMQFNHRLTQQEAAEKAQQMYAATKGLRWYRLSDEGEWLVRELNLPVDRTEGGWISLQDLRKVQRETARKSQWKKWEVVAERAWKGGTESEMFNKLESIATSDIPRTPVLGCCISRALEPSAVQEEFMTSRVNWVVQSSAVDYLHLMLVAMKWLFEEFAIDGRFCISIHDEVRYLVREEDRYRAALALQITNLLTRCMFAYKLGLNDLPQSVAFFSAVDIDRCLRKEVTMDCKTPSNPTGMERRYGIPQGEALDIYQIIELTKGSLEKRSQPGP
B2: NU133_HUMAN (protein, UniProt Q8WUM0 1-1156, looked up)
Nuclear pore complex protein …: MFPAAPSPRTPGTGSRRGPLAGLGPGSTPRTASRKGLPLGSAVSSPVLFSPVGRRSSLSSRGTPTRMFPHHSITESVNYDVKTFGSSLPVKVMEALTLAEVDDQLTINIDEGGWACLVCKEKLIIWKIALSPITKLSVCKELQLPPSDFHWSADLVALSYSSPSGEAHSTQAVAVMVATREGSIRYWPSLAGEDTYTEAFVDSGGDKTYSFLTAVQGGSFILSSSGSQLIRLIPESSGKIHQHILPQGQGMLSGIGRKVSSLFGILSPSSDLTLSSVLWDRERSSFYSLTSSNISKWELDDSSEKHAYSWDINRALKENITDAIWGSESNYEAIKEGVNIRYLDLKQNCDGLVILAAAWHSADNPCLIYYSLITIEDNGCQMSDAVTVEVTQYNPPFQSEDLILCQLTVPNFSNQTAYLYNESAVYVCSTGTGKFSLPQEKIVFNAQGDSVLGAGACGGVPIIFSRNSGLVSITSRENVSILAEDLEGSLASSVAGPNSESMIFETTTKNETIAQEDKIKLLKAAFLQYCRKDLGHAQMVVDELFSSHSDLDSDSELDRAVTQISVDLMDDYPASDPRWAESVPEEAPGFSNTSLIILHQLEDKMKAHSFLMDFIHQVGLFGRLGSFPVRGTPMATRLLLCEHAEKLSAAIVLKNHHSRLSDLVNTAILIALNKREYEIPSNLTPADVFFREVSQVDTICECLLEHEEQVLRDAPMDSIEWAEVVINVNNILKDMLQAASHYRQNRNSLYRREESLEKEPEYVPWTATSGPGGIRTVIIRQHEIVLKVAYPQADSNLRNIVTEQLVALIDCFLDGYVSQLKSVDKSSNRERYDNLEMEYLQKRSDLLSPLLSLGQYLWAASLAEKYCDFDILVQMCEQTDNQSRLQRYMTQFADQNFSDFLFRWYLEKGKRGKLLSQPISQHGQLANFLQAHEHLSWLHEINSQELEKAHATLLGLANMETRYFAKKKTLLGLSKLAALASDFSEDMLQEKIEEMAEQERFLLHQETLPEQLLAEKQLNLSAMPVLTAPQLIGLYICEENRRANEYDFKKALDLLEYIDEEEDININDLKLEILCKALQRDNWSSSDGKDDPIEVSKDSIFVKILQKLLKDGIQLSEYLPEVKDLLQADQLGSLKSNPYFEFVLKANYEYYVQGQI
B3: DHX30_HUMAN (protein, UniProt Q7L2E3 1-1194, looked up)
ATP-dependent RNA helicase …: MFSLDSFRKDRAQHRQRQCKLPPPRLPPMCVNPTPGGTISRASRDLLKEFPQPKNLLNSVIGRALGISHAKDKLVYVHTNGPKKKKVTLHIKWPKSVEVEGYGSKKIDAERQAAAAACQLFKGWGLLGPRNELFDAAKYRVLADRFGSPADSWWRPEPTMPPTSWRQLNPESIRPGGPGGLSRSLGREEEEDEEEELEEGTIDVTDFLSMTQQDSHAPLRDSRGSSFEMTDDDSAIRALTQFPLPKNLLAKVIQIATSSSTAKNLMQFHTVGTKTKLSTLTLLWPCPMTFVAKGRRKAEAENKAAALACKKLKSLGLVDRNNEPLTHAMYNLASLRELGETQRRPCTIQVPEPILRKIETFLNHYPVESSWIAPELRLQSDDILPLGKDSGPLSDPITGKPYVPLLEAEEVRLSQSLLELWRRRGPVWQEAPQLPVDPHRDTILNAIEQHPVVVISGDTGCGKTTRIPQLLLERYVTEGRGARCNVIITQPRRISAVSVAQRVSHELGPSLRRNVGFQVRLESKPPSRGGALLFCTVGILLRKLQSNPSLEGVSHVIVDEVHERDVNTDFLLILLKGLQRLNPALRLVLMSATGDNERFSRYFGGCPVIKVPGFMYPVKEHYLEDILAKLGKHQYLHRHRHHESEDECALDLDLVTDLVLHIDARGEPGGILCFLPGWQEIKGVQQRLQEALGMHESKYLILPVHSNIPMMDQKAIFQQPPVGVRKIVLATNIAETSITINDIVHVVDSGLHKEERYDLKTKVSCLETVWVSRANVIQRRGRAGRCQSGFAYHLFPRSRLEKMVPFQVPEILRTPLENLVLQAKIHMPEKTAVEFLSKAVDSPNIKAVDEAVILLQEIGVLDQREYLTTLGQRLAHISTDPRLAKAIVLAAIFRCLHPLLVVVSCLTRDPFSSSLQNRAEVDKVKALLSHDSGSDHLAFVRAVAGWEEVLRWQDRSSRENYLEENLLYAPSLRFIHGLIKQFSENIYEAFLVGKPSDCTLASAQCNEYSEEEELVKGVLMAGLYPNLIQVRQGKVTRQGKFKPNSVTYRTKSGNILLHKSTINREATRLRSRWLTYFMAVKSNGSVFVRDSSQVHPLAVLLLTDGDVHIRDDGRRATISLSDSDLLRLEGDSRTVRLLKELRRALGRMVERSLRSELAALPPSVQEEHGQLLALLAELLRGPCGSFDVRKTADD
B4: GTF2I_HUMAN (protein, UniProt P78347 2-998, looked up)
General transcription factor …: AQVAMSTLPVEDEESSESRMVVTFLMSALESMCKELAKSKAEVACIAVYETDVFVVGTERGRAFVNTRKDFQKDFVKYCVEEEEKAAEMHKMKSTTQANRMSVDAVEIETLRKTVEDYFCFCYGKALGKSTVVPVPYEKMLRDQSAVVVQGLPEGVAFKHPENYDLATLKWILENKAGISFIIKRPFLEPKKHVGGRVMVTDADRSILSPGGSCGPIKVKTEPTEDSGISLEMAAVTVKEESEDPDYYQYNIQAGPSETDDVDEKQPLSKPLQGSHHSSEGNEGTEMEVPAEDSTQHVPSETSEDPEVEVTIEDDDYSPPSKRPKANELPQPPVPEPANAGKRKVREFNFEKWNARITDLRKQVEELFERKYAQAIKAKGPVTIPYPLFQSHVEDLYVEGLPEGIPFRRPSTYGIPRLERILLAKERIRFVIKKHELLNSTREDLQLDKPASGVKEEWYARITKLRKMVDQLFCKKFAEALGSTEAKAVPYQKFEAHPNDLYVEGLPENIPFRSPSWYGIPRLEKIIQVGNRIKFVIKRPELLTHSTTEVTQPRTNTPVKEDWNVRITKLRKQVEEIFNLKFAQALGLTEAVKVPYPVFESNPEFLYVEGLPEGIPFRSPTWFGIPRLERIVRGSNKIKFVVKKPELVISYLPPGMASKINTKALQSPKRPRSPGSNSKVPEIEVTVEGPNNNNPQTSAVRTPTQTNGSNVPFKPRGREFSFEAWNAKITDLKQKVENLFNEKCGEALGLKQAVKVPFALFESFPEDFYVEGLPEGVPFRRPSTFGIPRLEKILRNKAKIKFIIKKPEMFETAIKESTSSKSPPRKINSSPNVNTTASGVEDLNIIQVTIPDDDNERLSKVEKARQLREQVNDLFSRKFGEAIGMGFPVKVPYRKITINPGCVVVDGMPPGVSFKAPSYLEISSMRRILDSAEFIKFTVIRPFPGLVINNQLVDQSESEGPVIQESAEPSQLEVPATEEIKETDGSSQIKQEPDPTW
B5: SYVM_HUMAN (protein, UniProt Q5ST30 27-1063, looked up)
Valine--tRNA ligase, …: SVSTQSEPHGSPISRRNREAKQKRLREKQATLEAEIAGESKSPAESIKAWRPKELVLYEIPTKPGEKKDVSGPLPPAYSPRYVEAAWYPWWVREGFFKPEYQARLPQATGETFSMCIPPPNVTGSLHIGHALTVAIQDALVRWHRMRGDQVLWVPGSDHAGIATQAVVEKQLWKERGVRRHELSREAFLREVWQWKEAKGGEICEQLRALGASLDWDRECFTMDVGSSVAVTEAFVRLYKAGLLYRNHQLVNWSCALRSAISDIEVENRPLPGHTQLRLPGCPTPVSFGLLFSVAFPVDGEPDAEVVVGTTRPETLPGDVAVAVHPDDSRYTHLHGRQLRHPLMGQPLPLITDYAVQPHVGTGAVKVTPAHSPADAEMGARHGLSPLNVIAEDGTMTSLCGDWLQGLHRFVAREKIMSVLSEWGLFRGLQNHPMVLPICSRSGDVIEYLLKNQWFVRCQEMGARAAKAVESGALELSPSFHQKNWQHWFSHIGDWCVSRQLWWGHQIPAYLVVEDHAQGEEDCWVVGRSEAEAREVAAELTGRPGAELTLERDPDVLDTWFSSALFPFSALGWPQETPDLARFYPLSLLETGSDLLLFWVGRMVMLGTQLTGQLPFSKVLLHPMVRDRQGRKMSKSLGNVLDPRDIISGVEMQVLQEKLRSGNLDPAELAIVAAAQKKDFPHGIPECGTDALRFTLCSHGVQAGDLHLSVSEVQSCRHFCNKIWNALRFILNALGEKFVPQPAEELSPSSPMDAWILSRLALAAQECERGFLTRELSLVTHALHHFWLHNLCDVYLEAVKPVLWHSPRPLGPPQVLFSCADLGLRLLAPLMPFLAEELWQRLPPRPGCPPAPSISVAPYPSACSLEHWRQPELERRFSRVQEVVQVLRALRATYQLTKARPRVLLQSSEPGDQGLFEAFLEPLGTLGYCGAVGLLPPGAAAPSGWAQAPLSDTAQVYMELQGLVDPQIQLPLLAARRYKLQKQLDSLTARTPSEGEAGTQRQQKLSSLQLELSKLDKAASHLRQLMDEPPAPGSPEL

Test system: KDM4A-I71AzF
Test: CASI: photo-crosslinking with HEK293T cell extracts, StrepTactin enrichment and LC-MS/MS proteomics;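 also: lysates from HEK293T cells pretreated with a KDM4 inhibitor to raise proteome methylation, affinity-purified after ±UV, gel-resolved, trypsin-digested, with exclusive unique peptides per protein averaged per condition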
Type: binding, human
Conditions: sheet "Final results but with 0.01"

| Molecule | Fold change (+UV/-UV) |
| --- | --- |
| B1 | 0 |
| B2 | 0.8 |
| B3 | 0.75 |
| B4 | 3 |
| B5 | 0.5 |
